Measured values published in PMC4423232.

Tests used:
[1] = target: optimized version of the ectodomain of human Fcγ receptor I (hFcγRI, CD64), residues Gln16 to Val289, hexa-histidine tag at the C-terminus (human) (UniProt P12314); experiment: SPR; temperature dependence of KD, van't Hoff approximation; hFcγRI on the surface, Fc or IgG1 as analyte
[2] = target: optimized version of the ectodomain of human Fcγ receptor I (hFcγRI, CD64), residues Gln16 to Val289, hexa-histidine tag at the C-terminus (human) (UniProt P12314); experiment: SPR; method #1: Biacore T200, hFcγRI captured by its C-terminal hexa-histidine on a Ni-NTA chip (~550 RU for Fc, ~220 RU for IgG), Fc or IgG1 as analyte, PBS with 0.005% Tween-20, 25 °C, 1:1 Langmuir global fit, KD from the rate constants

Question: What does the source list for “Fc fragment of the humanized IgG1 monoclonal antibody rituximab (from UniProt P01857 107-328) (domain or fragment)”?
Answer: dH (van't Hoff) [1]: -26.8 kcal/mol; Kd [2]: 4.2 nM; koff [2]: 0.00011 s⁻¹; kon [2]: 27000 M⁻¹ s⁻¹
